T1: CCR5 K26A, HA-tagged (human, UniProt P51681 1-352)
T1 sequence: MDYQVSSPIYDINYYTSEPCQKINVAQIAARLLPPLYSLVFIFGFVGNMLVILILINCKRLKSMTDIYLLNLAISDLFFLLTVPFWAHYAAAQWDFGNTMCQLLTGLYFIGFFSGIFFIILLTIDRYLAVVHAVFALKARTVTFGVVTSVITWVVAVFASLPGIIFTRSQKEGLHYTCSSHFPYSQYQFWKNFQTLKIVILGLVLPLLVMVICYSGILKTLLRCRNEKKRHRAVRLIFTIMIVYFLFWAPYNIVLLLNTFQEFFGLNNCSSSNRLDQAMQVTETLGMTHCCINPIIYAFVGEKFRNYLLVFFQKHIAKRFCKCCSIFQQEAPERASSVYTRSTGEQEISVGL

T2: CCR5 Q93A, HA-tagged (human, UniProt P51681 1-352)
T2 sequence: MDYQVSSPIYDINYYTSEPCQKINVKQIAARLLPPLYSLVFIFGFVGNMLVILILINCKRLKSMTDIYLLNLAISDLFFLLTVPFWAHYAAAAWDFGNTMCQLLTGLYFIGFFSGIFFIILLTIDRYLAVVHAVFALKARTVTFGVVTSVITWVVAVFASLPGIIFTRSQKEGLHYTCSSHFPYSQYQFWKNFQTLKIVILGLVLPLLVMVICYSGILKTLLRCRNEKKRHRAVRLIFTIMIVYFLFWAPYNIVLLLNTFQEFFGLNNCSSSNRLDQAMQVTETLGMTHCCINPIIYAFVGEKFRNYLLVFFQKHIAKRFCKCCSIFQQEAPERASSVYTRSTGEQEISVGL

T3: CCR5 Q102A, HA-tagged (human, UniProt P51681 1-352)
T3 sequence: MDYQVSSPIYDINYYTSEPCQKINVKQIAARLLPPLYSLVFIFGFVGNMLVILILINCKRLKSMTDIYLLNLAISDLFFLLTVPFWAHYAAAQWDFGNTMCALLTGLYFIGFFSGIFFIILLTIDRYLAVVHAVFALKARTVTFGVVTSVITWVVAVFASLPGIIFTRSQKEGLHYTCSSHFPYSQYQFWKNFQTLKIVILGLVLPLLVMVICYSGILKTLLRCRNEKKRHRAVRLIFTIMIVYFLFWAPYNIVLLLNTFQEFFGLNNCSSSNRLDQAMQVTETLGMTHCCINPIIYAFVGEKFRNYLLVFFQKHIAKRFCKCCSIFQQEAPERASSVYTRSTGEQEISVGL

T4: CCR5 H175A, HA-tagged (human, UniProt P51681 1-352)
T4 sequence: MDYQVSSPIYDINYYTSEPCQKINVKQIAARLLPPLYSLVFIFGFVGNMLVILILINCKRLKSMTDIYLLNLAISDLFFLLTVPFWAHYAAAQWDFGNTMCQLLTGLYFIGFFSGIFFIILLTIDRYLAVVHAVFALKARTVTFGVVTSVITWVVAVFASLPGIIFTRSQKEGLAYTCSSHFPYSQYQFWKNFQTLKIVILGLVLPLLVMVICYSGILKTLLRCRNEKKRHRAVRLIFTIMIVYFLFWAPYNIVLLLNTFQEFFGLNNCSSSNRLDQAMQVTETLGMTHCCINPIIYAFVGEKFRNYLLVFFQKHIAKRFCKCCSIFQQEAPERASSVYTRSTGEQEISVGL


Experiments:
Test in all cases: cell-based or functional assay
CCR5 K26A, HA-tagged = target: T1, CCR5 K26A, HA-tagged
CCR5 Q93A, HA-tagged = target: T2, CCR5 Q93A, HA-tagged
CCR5 Q102A, HA-tagged = target: T3, CCR5 Q102A, HA-tagged
CCR5 H175A, HA-tagged = target: T4, CCR5 H175A, HA-tagged

| Binder | relative % inhibition of NLluc/JR-FL entry into U87MG-CD4 cells by 2 µg/ml chemokine (wild-type = 100) (CCR5 K26A, HA-tagged) | relative % inhibition of NLluc/JR-FL entry into U87MG-CD4 cells by 2 µg/ml chemokine (wild-type = 100) (CCR5 Q93A, HA-tagged) | relative % inhibition of NLluc/JR-FL entry into U87MG-CD4 cells by 2 µg/ml chemokine (wild-type = 100) (CCR5 Q102A, HA-tagged) | relative % inhibition of NLluc/JR-FL entry into U87MG-CD4 cells by 2 µg/ml chemokine (wild-type = 100) (CCR5 H175A, HA-tagged) |
| --- | --- | --- | --- | --- |
| macrophage inflammatory protein (MIP)-1β, recombinant human (ligand, UniProt P13236 24-92, looked up) APMGSDPPTACCFSYTARKLPRNFVVDYYETSSLCSQPAVVFQTKRSKQVCADPSESWVQEYVYDLELN | 97% | 97% | 98% | 100% |
| RANTES, recombinant human (ligand) SPYSSDTTPCCFAYIARPLPRAHIKEYFYTSGKCSNPAVVFVTRKNRQVCANPEKKWVREYINSLEMS | 100% | 114% | 93% | 95% |
